According to patent US20030203841A1 (US Dept. of Health and Human Services, published 2003):
Where no end group is shown, it is not given here. The star is where a group is joined. For = O=C*

What was measured:
[1] = target: epitope tagged N-formyl peptide receptor (FPR) on ETFR cells (stably transfected rat basophilic leukemia cells) (human) (UniProt P21462); experiment: competition of unlabeled fMLP with ^3H-fMLP for binding to FPR expressing ETFR cells, filtration, 20 min at 37 C
[2] = target: epitope tagged N-formyl peptide receptor (FPR) on ETFR cells (stably transfected rat basophilic leukemia cells) (human) (UniProt P21462); experiment: cell-based or functional assay
[3] = target: T1, FPR-like receptor 1 (FPRL1) on transfected human embryonic kidney 293 cells (FPRL1/293 cells) (human, UniProt P25090 1-351); experiment: cell-based or functional assay
T1 sequence: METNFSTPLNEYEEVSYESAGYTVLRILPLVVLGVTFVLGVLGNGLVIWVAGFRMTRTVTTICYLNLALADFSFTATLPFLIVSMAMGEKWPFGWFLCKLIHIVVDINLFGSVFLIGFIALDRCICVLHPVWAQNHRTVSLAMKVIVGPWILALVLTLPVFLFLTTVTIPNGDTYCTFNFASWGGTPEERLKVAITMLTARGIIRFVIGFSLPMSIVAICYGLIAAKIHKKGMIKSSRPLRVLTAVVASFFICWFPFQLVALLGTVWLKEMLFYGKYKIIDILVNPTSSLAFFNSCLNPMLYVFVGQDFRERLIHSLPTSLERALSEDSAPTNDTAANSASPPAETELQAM

[4] = target: T2, epitope tagged N-formyl peptide receptor (FPR) on ETFR cells (stably transfected rat basophilic leukemia … (human, UniProt P21462 1-350)); experiment: cell-based or functional assay
T2 sequence: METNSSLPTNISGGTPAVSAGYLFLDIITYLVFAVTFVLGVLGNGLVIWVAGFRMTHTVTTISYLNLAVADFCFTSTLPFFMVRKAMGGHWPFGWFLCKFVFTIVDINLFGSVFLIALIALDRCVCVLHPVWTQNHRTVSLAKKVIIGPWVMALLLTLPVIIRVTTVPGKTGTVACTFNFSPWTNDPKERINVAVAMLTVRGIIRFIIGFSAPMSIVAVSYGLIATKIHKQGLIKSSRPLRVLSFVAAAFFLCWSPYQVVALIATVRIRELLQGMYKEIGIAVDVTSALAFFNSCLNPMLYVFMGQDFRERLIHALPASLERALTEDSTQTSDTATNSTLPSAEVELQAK

N-formyl-methionyl-leucyl-phenylalanine (fMLP) (peptide)
IC50 [1]: 1 nM
EC50 of migration of ETFR cells (chemotaxis) [2]: 500 pM
concentration required to induce a change in the ratio of 2 at 340/380 nm fluorescence (Ca^++) in FPR expressing cells [2]: 1e-10

B1: N-formyl-methionyl-leucyl-phenylalanine (fMLP) (peptide)
peptide: For-Met-Leu-Phe
modifications: also: tritiated (3H) form used as tracer
concentration required to induce a change in the ratio of 0.6 at 340/380 nm fluorescence (Ca^++) in FPRL1/293 cells [3]: 5e-05
excess of fMLP needed to desensitize the Ca^++ flux induced by T21/DP107 in FPRL1/293 cells [3]: 1000 fold

B2: T21/DP107 (peptide)
peptide: NNLLRAIEAQQHLLQLTVWGIKQLQARILAVERYLKDQ
modifications: also: some embodiments acylated, form not given here
concentration required to induce a change in the ratio of 2 at 340/380 nm fluorescence (Ca^++) in FPR expressing cells [4]: 1e-05
EC50 of migration of FPRL1/293 cells (chemotaxis) [3]: 50 nM
concentration required to induce a change in the ratio of 0.6 at 340/380 nm fluorescence (Ca^++) in FPRL1/293 cells [3]: 5e-07
